# B1: TPR t1 (parent)
# chain: GACCAAUCUGCCCUCAGAGCUCGAGAACAUCUUCGGAUGCAGAGGAGGCAGGCUUCGGUGGCGCGAUAGCGCCAACGUCCUCAACCUCCAAUGCAUCCCACCACAUGAUGAUGCCUGAAGAGCCUUGGUUUUUUG
# Variants of: B1
# Test: polymerase ribozyme fitness, log enrichment relative to wild type (log ratio); higher = more active; in vitro selection for triplet polymerase activity
# Method in brief: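 Genotype fitness is the logarithm of its enrichment divided by wild-type enrichment, using inverse-variance-weighted averages of replicates. That logarithm is base 2. Enrichment was measured by Illumina sequencing of input and output libraries from one triplicate in vitro selection round, with frozen incubation at −7 °C, on PCR-built, transcribed mutant libraries of each subunit of a heterodimeric triplet polymerase ribozyme, retaining genotypes with ≥10 input reads and ≥1 read per output.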
row,Variant,polymerase ribozyme fitness (log ratio)
1,U7G C22G G117U U130C,-2.69
2,C8G C28A U130A,-5.09
3,C8G C12G U30C C53G C114U,-4.29
4,C8A G61U C98A,-3.46
5,U7G C73A U92A,-2.35
6,U7G G10A A41G C79A C80A C115A,-3.95
7,U7G A29U G42A C53U C62U,-3.19
8,C8A U30C G69U A118U G120A U129G,-1.47
9,C8A C62U A74U,0.227
10,C8A C13G U14G G48A G77A G128C,-5.17
11,C8G C11U,1.67
12,U7G C72U G93C C115U,0.15
13,U7G C124A,1.74
14,C8G C123A,0.956
15,C8A G60U,-0.464
16,U7C G113A,0.595
17,C8G C11U C85U U130C,-0.895
18,U7G G69U,0.479
19,C8G A43U A95U U109A C123G,-5.23
20,C8A G39A,-0.0887
21,C8G A50U C56A C79G A100G A111U,-5.8

row,Variant,polymerase ribozyme fitness (log ratio)
1,C8G C64U G135U,0.0899
2,U7G A16C G42A,-4.17
3,C8A C85U,-0.102
4,C8A G52A,-0.0157
5,C8A C13G G60C A90U U109G A119U,-6.32
6,U7C C62U G120A G128A,0.578
7,U7C C13A C72G U92C,-2.47
8,U7C G10C A83C C115U,-1.32
9,C8G C56A C123A,1.29
10,C8A C31A U129C,-5.73
11,C8A G45C G58A C97G U106A,-3.12
12,C8A C13U C49G,0.151
13,C8G C34U C70A G117A U126A,-6.92
14,C8A G47U U78G U81G,-4.17
15,C8G A18U U21A C79A C123G,-3.84
16,U7G C80U,0.145
17,C8A C79U C88G C102U,-2.19
18,U7C C56A G135U,-1.85
19,U7C C49U A50C C99U A100U G117U,-6.3
20,U7G G47U G113C,-2.84
21,C8G C13G A37C G52C C86U,-2.49

row,Variant,polymerase ribozyme fitness (log ratio)
1,C8A C72U U87A C99U,-2.56
2,C8A G48A C89U C124U,1.22
3,C8A C28G C53A,-2.01
4,C8G G45A G117A C123A U130G,0.313
5,U7G G110C C124A,-4.31
6,U7G C12G G58A C72U,0.394
7,C8A G47U C49U G110U,-3.49
8,C8G C98G,-5.23
9,C8G G10U G69U A95U C102A C114G U129G,-2.33
10,C8G C40A,-1.11
11,U7G U96C,-0.0298
12,U7C C11G C82U,0.131
13,C8A C53A U78C C80U,-0.244
14,C8A C62U,0.19
15,U7G A91U,-1.77
16,C8A U21G A50G C88A C124A,-0.0763
17,C8G C11A U96G C97G U131G,-5.45
18,U7G C72U C115U,0.671
19,C8G C13A A16U,0.292
20,C8G C22G,-3.9
21,C8A C28A C72U C123U,-2.54

row,Variant,polymerase ribozyme fitness (log ratio)
1,C8A U30G C115U U130G,-5.92
2,C8G A18U C98U,-2.18
3,C8A U112C,1.3
4,C8A G19U,-2.62
5,C8G A16U A90U,-0.236
6,U7G G63C,-0.0723
7,C8A G44U G51U U59C G77U U112C U130A,-4.84
8,C8G G44A G63U U125G,-2.03
9,U7G A111U,-1.87
10,C8A U30A A46C U109G A119U,-6.8
11,C8A C53A,0.281
12,C8G G10U A16C G77U U81A C85A,-3.62
13,C8G A41C G63U G113A A118G,-3.33
14,C8A U129A,-0.0105
15,C8A G36U C82A,-0.55
16,C8A G47U C73G C82U,-1.82
17,C8A C64U A95G A111G G122U G135A,-0.12
18,U7C C20U C62A A83C A119G,-1.83
19,U7G C34U G69U C102U U106A,-0.632
20,C8G C15U G48C C124G,0.169
21,C8G A46U G117C,-1.21

# Reference: the RNAGym collection of RNA variant scans (doi:10.1073/pnas.2313332121)
